Experimental data taken from the supplement of paper PMC12338614.
± gives the uncertainty stated by the source.

B1: library; numbered along this chain (parent)
chain: MEVVDPQQLGMFTEGELMSVGMDTFIHRIDSTEVIYQPRRKRAKLIGKYLMGDLLGEGSYGKVKEVLDSETLCRRAVKILKKKKLRRIPNGEANVKKEIQLLRRLRHKNVIQLVDVLYNEEKQKMYMVMEYCVCGMQEMLDSVPEKRFPVCQAHGYFCQLIDGLEYLHSQGIVHKDIKPGNLLLTTGGTLKISDLGVAEALHPFAADDTCRTSQGSPAFQPPEIANGLDTFSGFKVDIWSAGVTLYNITTGLYPFEGDNIYKLFENIGKGSYAIPGDCGPPLSDLLKGMLEYEPAKRFSIRQIRQHSWFRKKHPPAEAPVPIPPSPDTKDRWRSMTVVPYLEDLHGADEDEDLFDIEDDIIYTQDFTVPGQVPEEEASHNGQRRGLPKAVCMNGTEAAQLSTKSRAEGRAPNPARKACSASSKIRRLSACKQQ

Variants of: B1
Experiment: STK11 functional score (HeLa growth suppression), rescaled enrichment; synonymous median = 1, nonsense median = 0 (normalised score)
Settings: with HeLa; variant type: missense
Procedure: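 Deep mutational scan (TileSeq/POPCode codon randomisation) of full-length codon-optimised STK11 cDNA integrated at a Bxb1 landing pad (AAVS1) in HeLa cells. Restoring functional STK11 suppresses HeLa proliferation. Variant frequencies were measured by NGS before and after about two weeks of growth. The error-corrected enrichment log-ratio was rescaled so that synonymous median = 1 and nonsense median = 0, scores above 1 were compressed, and codon-level and three biological replicate scores were combined; error is the bootstrapped standard error. Scale: synonymous median = 1, nonsense median = 0; below 0.5 = damaging.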

| Variant | STK11 functional score |
| --- | --- |
| MEVVDPQQLGMFTEGELMSVGMDTFIHRIDSTEVMYQPRRKRAKLIGKYLMGDLLGEGSYGKVKEVLDSETLCRRAVKILKKKKLRRIPNGEANVKKEIQLLRRLRHKNVIQLVDVLYNEEKQKMYMVMEYCVCGMQEMLDSVPEKRFPVCQAHGYFCQLIDGLEYLHSQGIVHKDIKPGNLLLTTGGTLKISDLGVAEALHPFAADDTCRTSQGSPAFQPPEIANGLDTFSGFKVDIWSAGVTLYNITTGLYPFEGDNIYKLFENIGKGSYAIPGDCGPPLSDLLKGMLEYEPAKRFSIRQIRQHSWFRKKHPPAEAPVPIPPSPDTKDRWRSMTVVPYLEDLHGADEDEDLFDIEDDIIYTQDFTVPGQVPEEEASHNGQRRGLPKAVCMNGTEAAQLSTKSRAEGRAPNPARKACSASSKIRRLSACKQQ [I35M] | 0.908 ± 0.52 |
| MEVVDPQQLGMFTEGELMSVGMDTFIHRIDSTEVIYQPRRKRAKLIGKYLMGDLLGEGSYGKVKEVLDSETLCRRAVKILKKKKLRRIPNGEANVKKEIQLLRRLRHKNVIQLVDVLYNEEKQKMYMVMEYCVCGMQEMLDSVPEKRFPVCQAHGYFCQLIDGLEYLHSQGIVHKDIKPGNLLLTTGGTLKISDLGVAEALHPFAADDTCRTSQGSPAFQPPEIANGLDTFSGFKVDIWSAGVTLYNITTGLYPFEGDNIYKLFENIGKGSYAIPGDCGPPLSDLLKGMLEYEPAKRFSIRQIRQHSWFRKKHPPAEAPVPIPPSPDTKDRWRSMTVVPYLEDLHGADEDEDLFDIEVDIIYTQDFTVPGQVPEEEASHNGQRRGLPKAVCMNGTEAAQLSTKSRAEGRAPNPARKACSASSKIRRLSACKQQ [D358V] | 1.46 ± 0.2 |
| MEVVDPQQLGMFTEGELMSVGMDTFIHRIDSTEVIYQPRRKRAKLIGKYLMGDLLGEGSYGKVKEVLDSETLCRRAVKILKKKKLRRIPNGEANVKKEIQLLRRLRHKNTIQLVDVLYNEEKQKMYMVMEYCVCGMQEMLDSVPEKRFPVCQAHGYFCQLIDGLEYLHSQGIVHKDIKPGNLLLTTGGTLKISDLGVAEALHPFAADDTCRTSQGSPAFQPPEIANGLDTFSGFKVDIWSAGVTLYNITTGLYPFEGDNIYKLFENIGKGSYAIPGDCGPPLSDLLKGMLEYEPAKRFSIRQIRQHSWFRKKHPPAEAPVPIPPSPDTKDRWRSMTVVPYLEDLHGADEDEDLFDIEDDIIYTQDFTVPGQVPEEEASHNGQRRGLPKAVCMNGTEAAQLSTKSRAEGRAPNPARKACSASSKIRRLSACKQQ [V110T] | 1.51 ± 0.13 |
| MEVVDPQQLGMFTEGELMSVGMDTFIHRIDSTEVIYQPRRKRAKLIGKYLMGDLLGEGSYGKVKEVLDSETLCRRAVKILKKKKLRRIPNGEANVKKEIQLLRRLRHKNVIQLVDVLYNEEKQKMYMVMEYCVCGMQEMLDSVPEKRFPVCQAHGYFCQLIDGLEYLHSQGIVHKDIKPGNLLLTTGGTLKISDLGVAEALHPFAADDTCRTSQGSPAFQPPEIANGLDTFSGFKVDIWSAGVTLYNITTGLYPFEGDNIYKLFENIGKGSYAIPGDCGPPLSDLLKGMLEYEPAKRFSIRQIRQHSWFRKKHPPAEAPVPIPPSPDTKDRWRSMTVVPYLESLHGADEDEDLFDIEDDIIYTQDFTVPGQVPEEEASHNGQRRGLPKAVCMNGTEAAQLSTKSRAEGRAPNPARKACSASSKIRRLSACKQQ [D343S] | 1.35 ± 0.16 |
| MEVVDPQQLGMFTEGELMSVGMDTFIHRIDSTEVIYQPRRKRAKLIGKYLMGDLLGEGSYGKVKEVLDSETLCRRAVKILKKKKLRRIPNGEANVKKEIQLLRRLRHKNVIQLVDVLYNEEKQKMYMVMEYYVCGMQEMLDSVPEKRFPVCQAHGYFCQLIDGLEYLHSQGIVHKDIKPGNLLLTTGGTLKISDLGVAEALHPFAADDTCRTSQGSPAFQPPEIANGLDTFSGFKVDIWSAGVTLYNITTGLYPFEGDNIYKLFENIGKGSYAIPGDCGPPLSDLLKGMLEYEPAKRFSIRQIRQHSWFRKKHPPAEAPVPIPPSPDTKDRWRSMTVVPYLEDLHGADEDEDLFDIEDDIIYTQDFTVPGQVPEEEASHNGQRRGLPKAVCMNGTEAAQLSTKSRAEGRAPNPARKACSASSKIRRLSACKQQ [C132Y] | 0.597 ± 0.082 |
| MEVVDPQQLGMFTEGELMSVGMDTFIHRIDSTEVIYQPRRKRAKLIGKYLMGDLLGEGSYGKVKEVLDSETLCRRAVKILKKKKLRRCPNGEANVKKEIQLLRRLRHKNVIQLVDVLYNEEKQKMYMVMEYCVCGMQEMLDSVPEKRFPVCQAHGYFCQLIDGLEYLHSQGIVHKDIKPGNLLLTTGGTLKISDLGVAEALHPFAADDTCRTSQGSPAFQPPEIANGLDTFSGFKVDIWSAGVTLYNITTGLYPFEGDNIYKLFENIGKGSYAIPGDCGPPLSDLLKGMLEYEPAKRFSIRQIRQHSWFRKKHPPAEAPVPIPPSPDTKDRWRSMTVVPYLEDLHGADEDEDLFDIEDDIIYTQDFTVPGQVPEEEASHNGQRRGLPKAVCMNGTEAAQLSTKSRAEGRAPNPARKACSASSKIRRLSACKQQ [I88C] | 1.07 ± 0.28 |
| MEVVDPQQLGMFTEGELMSVGMDTFIHRIDSTEVIYQPRRKRAKLIGKYLMGDLLGEGSYGKVKEVLDSETLCRRAVKILKKKKLRRIPNGEANVKKEIQLLRRLRHKNVIQLVDVLYNEEKQKMYMVMEYCVCGMQEMLDSVPEKRFPVCQAHGYFCQLIDGLEYLHSQGIVHKDIKPGNLLLTTGGTLKISDLGVAEALHPFAADDTCRTSQGSPAFQPPEIANGLDTFSGFKVDIWSAGVTLYNITTGLYPFEGDNIYKLFENIGKGSYAIPGDCGPPLSDLLKGMLEYEPAKRFSIRQIRQHSWFRKKHPPAEAPVPIPPSPDTKDRWRSMTVVPYLEDLHGADEDEDLFDIEDDIIYTQDFTVPGQVPEEEASHNGQRRGLPKAVCMNGTEAAQLSTKSRAEGRAPNPARKACSASSDIRRLSACKQQ [K423D] | 1.14 ± 0.6 |
